Experimental findings from patent publication US11180762B2, “Methods and compositions for the treatment of cancer” (CHILDREN'S MEDICAL CENTER CORPORATION, priority 2014, dated 2021) are described below.

One data set relates to basal-A TNBC tumors. The settings on record: mouse, in vivo. The source says:
We next tested whether proteasome inhibition inhibited the growth of basal-like TNBC tumors in mice.

The next data set relates to basal-A TNBCs. Nature of the data set: Bortezomib on TNBC cell lines in vitro. The data set is classed as cell-based, human.
Data set [1] has as its system breast cancer cell lines. Nature of the data set: Colony formation assay. In kind it is cell-based, human. The settings on record: AsiC 4 uM, paclitaxel 100 nM. The method, then:
(§1) For colony formation assay, 1,000 viable cells were treated for 6 h in round bottom 96-well plates and then transferred to 10-cm plates in serum-containing medium. Medium was replaced every 3 d. After 8-14 d, cells were fixed in methanol (−20 C) and stained with crystal violet. For sphere formation assay, 1,000/ml viable cells were treated for 6 h in round bottom 96-well plates and then cultured in suspension in serum-free DMEM/F12 1:1 (Invitrogen), supplemented with EGF (20 ng/ml, BD Biosciences), B27 (1:50, Invitrogen), 0.4% bovine serum albumin (Sigma) and 4 μg/ml insulin (Sigma). Spheres were counted after 1 or 2 weeks.

For data set [2], the system named is breast cancer cell lines. Nature of the data set: Sphere (mammosphere) formation assay. The data set is classed as cell-based, human. The method, then: as §1
The next data set deals with AKT1. Nature of the data set: AKT1 mRNA and protein knockdown in breast cancer cell lines. In kind it is cell-based, human. Also on record: AKT1 protein silencing by flow cytometry: dose or concentration left out as unconfirmed. The settings on record: for AKT1 mRNA and protein knockdown across cell lines: basal-A, luminal, basal-B lines, fibroblasts. The method, then: (§2) For uptake and silencing treatment, cells were plated at low density (10,000 cells/well in 96-well plates) and treated immediately. All AsiC and siRNA treatments were performed in either OptiMEM or WIT medium. Cell viability was assessed by CellTiter-Glo (Promega) or by Trypan-Blue staining in 96-well plates.
For flow cytometry, cells were stained as previously described (Yu, F. et al (2007). let-7 Regulates Self Renewal and Tumorigenicity of Breast Cancer Cells. Cell 131, 1109-1123. ), briefly, direct immunostaining of EpCAM and AKT1 was performed using 1:50 dilutions of hAb for 30-60 minutes at 4° C. (BioLegend/BD). Cells were stained in PBS containing 0.5% FCS, 1 mM EDTA, and 25 mM HEPES. Samples were washed twice in the same buffer. Data was acquired using FACS-Canto II (BD Biosciences). Analyses were performed in triplicate and 10,000 gated events/sample were counted. All data analysis was performed using FlowJo (Treestar Inc.).
qRT-PCR analysis was performed as described (Petrocca, F., et al. (2008). E2F1-regulated microRNAs impair TGFbeta-dependent cell-cycle arrest and apoptosis in gastric cancer. Cancer Cell 13, 272-286). Briefly, total RNA was extracted with Trizol (Invitrogen) and cDNA prepared from 1000 ng total RNA using Thermoscript RT kit (Invitrogen) as per the […] (Applied Biosystems) and a BioRad C1000 Thermal Cycler (Biorad). Relative CT values were normalized to GAPDH and converted to a linear scale.

The test system of data set [3] is basal-A, luminal and basal-B breast cancer cell lines. The experiment in a line: Cell proliferation/viability by CellTiter-Glo in 10 breast cancer cell lines. The data set is classed as cell-based, human.
Source text: To explore whether EpCAM-AsiCs could be used as anti-tumor agents in breast cancer, we examined by CellTiterGlo assay the effect of AsiCs directed against PLK1, a kinase required for mitosis, on survival of 10 breast cancer cell lines that included 5 basal-A TNBCs, 2 luminal cell lines, and 3 basal-B TNBCs. […] The anti-proliferative effect strongly correlated with EpCAM expression (FIG. 2B). The reduction in viable EpCAM+ cells after knockdown was due to induction of apoptosis, assessed by annexin V-propidium iodide staining and caspase activation (data not shown). To determine whether ligation of the EpCAM aptamer contributed to the anti-proliferative effect of the EpCAM-AsiC, we compared survival of cells that were treated with the PLK1 EpCAM-AsiC with cells treated with the aptamer on its own (FIG. 2C). […] Thus the PLK1 EpCAM-AsiC asserts its specific anti-tumor effect on EpCAM+ breast cancer cells by gene knockdown.
as §2

The next data set relates to Argonaute (AGO). Nature of the data set: PLK1 siRNA association with Argonaute (pan-AGO immunoprecipitation, qRT-PCR). The settings on record: MDA-MB-468 cells treated 2 days. In kind it is cell-based, human. An excerpt: MB-468 cells, treated with PLK1 EPCAM-AsiC or siRNA for 2 days, were lysed, and cell lysates were immunoprecipitated with pan-AGO antibody or IgG isotype control. The amount of PLK1 siRNA in the immunoprecipitates was quantified by Taqman qRT-PCR, presented as log2 mean with SEM, relative to miR-16. **, P<0.01 by Student's t-test relative to siRNA-treated cells. ND, not detectable. […] This is likely because most RNAs that are taken up by cells are not released from endosomes to the cytosol (A. Wittrup et al., Visualizing lipid-formulated siRNA release from endosomes and target gene knockdown. Nature Biotechnology 2015, in press).
Uptake was clearly detected at 22 hr, but increased greatly after 43 hr. To test whether EpCAM-AsiCs are specifically taken up by EpCAM bright cell lines, the 3′ end of the antisense strand of the AsiC was fluorescently labeled. […] Previous studies have shown that AsiCs are processed within cells by Dicer to release the siRNA from the aptamer (10, 12, 15).

A further data set relates to MB468-luc tumors. The experiment in a line: Tumor inhibition, EpCAM+ MB468-luc xenograft. In kind it is in vivo, nude mice. The settings on record: 5 mg/kg sc every 3 d (72 h) for 2 wks. How it is done: (§3) For tumor inhibition studies, MB468-luc (5×10^6) and MB231-luc-mCherry (5×10^5) cells trypsinized with Tryple Express (Invitrogen), resuspended in a 1:1 WIT-Matrigel solution and injected subcutaneously in the flank of 8-week old female Nu/J mice (Stock #002019, Jackson Laboratories). Tumors size was analyzed daily using the IVIS Spectra, after 5 days tumors were clearly visible. […] Mice were treated every 72 h for 14 days.

In data set [4] the test system is eGFP expression in BPLER and BPE cells. Nature of the data set: eGFP knockdown in GFP-expressing BPLER and BPE cells. The settings on record: AsiC 4 μM without lipid, siRNA 100 nM with Dharmafect, 72 hours. In kind it is cell-based, human. The method, then: FIG. 21A depicts the design of EpCAM-AsiC, containing an EpCAM aptamer and a PLK1 siRNA (sense strand disclosed as SEQ ID NO: 1 and antisense strand disclosed as SEQ ID NO: 2). […] EpCAM-AsiC targeting GFP was Alexa647 or Cy3 labeled at the 3′ end of the antisense siRNA strand and incubated with BPLER and BPE cells. Uptake was assessed 24 hours later by flow cytometry (FIG. 21C). Data are representative of 3 independent experiments. Cy3 and Alexa647-labeled EpCAM-AsiC was taken up by MB468 and BPLER (EpCAM+ cells) respectively and not by BPE (EpCAM−). MFI of each peak is shown (mock, gray). FIG. 21D depicts graphs of experiments in which, to test for gene silencing, BPLER and BPE were treated with EpCAM-AsiC targeting GFP (4 μM) and compared to Transfection controls using Dharmafect and GFP-siRNA (100 nM). Knockdown was assessed by flow cytometry 72 hours after incubation. Controls were mock and Dhrmafect only treatment (lipid). (n=4).
as §2
Cells were transfected with Dharmafect I per the manufacturer's protocol. See FIG. 9 for all siRNA sequences.

Another data set has as its system MB468-luc cells. Nature of the data set: Tumor initiation by ex vivo treated EpCAM+ cells in nude mice. The settings on record: cells treated ex vivo 24 h/overnight, then implanted; imaged 20 days; listed as EpCAM-AsiC targeting GFP. How it is done: For tumor initiation studies 8-week old female Nu/J mice (Stock #002019, Jackson Laboratories) were injected subcutaneously with MB468-luc (5×10^6) cells pretreated for 24 h with EpCAM-AsiC-GFP, EpCAM-AsiC-PLK1 or untreated. Cells were trypsinized with Tryple Express (Invitrogen), resuspended in WIT media and injected subcutaneously in the flank. Following intraperitoneal injection of 150 mg/kg D-luciferin (Caliper Life Sciences) luminescent images of the whole body were taken every 5 days for a total of 20 days using the IVIS Spectra system (Caliper Life Sciences).

Another data set relates to MB231-luc-mCherry tumors. The experiment in a line: Tumor inhibition, EpCAM− MB231-luc-mCherry xenograft. The data set is classed as in vivo, nude mice. The settings on record: 5 mg/kg sc every 3 d (72 h) for 2 wks. How it is done:
as §3

Entries after “also recorded” stand apart in the source; their conditions may differ.

With `CC(C)C[C@H](NC(=O)[C@H](Cc1ccccc1)NC(=O)c1cnccn1)B(O)O` [bortezomib], the “penetration into solid tumors” value with basal-A TNBC tumors is on record as “does not penetrate well into solid tumors”. The “killing and T-IC function (colony, mammosphere)” value in the data set with basal-A TNBCs was “both killed basal-A TNBCs and also blocked T-IC function”. Further, the “viable cells after treatment” value in the data set on basal-A TNBCs (24 hr) is around 40%.

Regarding `CC(=O)O[C@H]1C(=O)[C@@]2(C)[C@H]([C@H](OC(=O)c3ccccc3)[C@]3(O)C[C@H](OC(=O)[C@H](O)[C@@H](NC(=O)c4ccccc4)c4ccccc4)C(C)=C1C3(C)C)[C@]1(OC(C)=O)CO[C@@H]1C[C@@H]2O` [paclitaxel, reference compound], in the data set on breast cancer cell lines [1], the “colony formation, EpCAM+ basal-A and luminal lines” value was “resistant clones emerged”; the “colony formation, EpCAM− basal-B lines” value is on record as “reducing colony formation but still resistant clones invariably emerged”; the “colony formation, cell lines tested” value was “decreased colony formation in all cells lines”. Further, the “sphere/mammosphere formation, cell lines tested” value in the data set on breast cancer cell lines [2] is “reduced sphere-formation in all”.

With “AKT1 siRNA: AKT1 siRNA, sense SEQ ID NO: 29, antisense SEQ ID NO: 30 (sense GCUGGAGAACCUCAUGCUG; antisense CAGCAUGAGGUUCUCCAGC; listed as RNA, chemistry not given here) [reference compound]”, the “AKT1 mRNA and protein knockdown across cell lines” value in the data set on AKT1 was “comparably knocked down expression in all the cell lines studied”.

As to “PLK1 siRNA: PLK1 siRNA, sense SEQ ID NO: 31, antisense SEQ ID NO: 32 (sense UGAAGAAGAUCACCCUCCUUA; antisense UAAGGAGGGUGAUCUUCUUCA; listed as RNA, chemistry not given here) [reference compound]”, the “cell proliferation/viability, all cell lines tested” value in data set [3] is reported as “suppressed the growth of all the cell lines”. The “PLK1 siRNA bound to Ago / in the RISC” value in the data set with Argonaute (AGO) was “No PLK1 siRNA bound to Ago”. In addition, the “growth of EpCAM+ MB468 tumors” value in the data set on MB468-luc tumors is “continued to grow without significant change; also recorded: neither of which had any anti-tumor activity”.

B1: AKT1 EpCAM-AsiC: EpCAM aptamer-AKT1 siRNA chimera, sense SEQ ID NO: 23, antisense SEQ ID NO: 24 (nucleic acid)
sense: GCGACUGGUUACCCGGUCGUUGCUGGAGAACCUCAUGCUGTT
antisense: CAGCAUGAGGUUCUCCAGCTT
modifications: chemistry not fully specified
For B1, the “AKT1 protein silencing by flow cytometry” value with AKT1 (EpCAM-AsiC for 5 days) was “specific AKT1 protein silencing”. Further, the “AKT1 mRNA and protein knockdown across cell lines” value was “decreased AKT1 mRNA and protein levels” in the data set with AKT1 (listed as EpCAM-AsiC targeting AKT1); “only in EpCAM^bright luminal and basal-A TNBCs” in the data set on AKT1 (listed as EpCAM-AsiCs targeting AKT1).

B2: GFP EpCAM-AsiC: EpCAM aptamer-GFP siRNA chimera, sense SEQ ID NO: 25, antisense SEQ ID NO: 26 (nucleic acid)
sense: GCGACUGGUUACCCGGUCGUUUGGCUACGUCCAGGAGCGCATT
antisense: UGCGCUCCUGGACGUAGCCTT
modifications: DNA at T, 2'-fluoro at CU, RNA at AG, backbone not given here; EpCAM aptamer fused to sense strand
On to B2, for which the “colony formation, cell lines tested” value with breast cancer cell lines [1] is “had no effect”. Moreover, the “sphere/mammosphere formation, cell lines tested” value in the data set with breast cancer cell lines [2] is on record as “had no effect”. The “AKT1 mRNA and protein knockdown across cell lines” value in the data set with AKT1 (listed as AsiCs targeting eGFP) is listed as “had no effect on AKT1 levels”; in the data set on AKT1 (listed as EpCAM-AsiC targeting GFP) it was “did not effect any of the cell lines”. For the same molecule, the “eGFP knockdown, BPLER vs BPE” value is “selectively knocked down expression in BPLER” in data set [4] (listed as EpCAM-AsiCs targeting GFP) and “selectively knocked down expression only in BPLER” in [4] (listed as eGFP EpCAM-AsiCs). In addition, the “tumor initiation, EpCAM+ cells” value in the data set with MB468-luc cells is reported as “displayed tumors after 5 days; also recorded: displayed increase in tumor initiation”. Also, the “growth of EpCAM− MB231 tumors” value in the data set on MB231-luc-mCherry tumors (listed as EpCAM-Asic targeting GFP) is “suppress tumor growth in both EpCAM+ and EpCAM-tumors but didn't eliminate tumors”; with MB231-luc-mCherry tumors (listed as eGFP-targeting AsiCs), “continued to grow”. For the same molecule, the figures for the “growth of EpCAM+ MB468 tumors” value in the data set with MB468-luc tumors (listed as GFP AsiC) and with MB468-luc tumors (listed as eGFP-targeting AsiCs) were “did not increase in size as much as control untreated mice” and “continued to grow”, respectively.
